Reference: paper PMC11602133, “Uncoupling [sequence]’s functions through modification of a protein motif identified by co-ortholog analysis” (Nucleic Acids Research, 2024)

Target: the molecule itself
Test: native gel or EMSA; in vitro produced proteins (wheat germ TnT) mixed with a DY-682 labelled ~100 bp DNA probe containing a CArG-box (SAUR10 probe); protein complexes read from the shifted bands on DNA; anti-FLAG antibody added for supershift where FUL-FLAG was used

B1: FRUITFULL (FUL), Arabidopsis, in vitro produced (natural protein)
chain: not shown
notes: also called FUL(ST); source: in vitro translated (TnT SP6 High-Yield Wheat Germ Protein Expression System, pSPUTK vector)
stoichiometry N: 2
